Reference: a protein production outcome set (Wang et al. 2014)

Test: label from the status in PepcDB records
For “MPSTLQGTFHTYRIIRRLGQGAFGEVSLAGVLETGEVVALKRIHIRNTGGIPDVVVREIKALQSVSHPNVVALLDVFPKGQAIYLVQEYCTTDLAALLRRLPAPPPERIAKGLMLQLCRGLEALHAEGIMHRDVKPSNTLLSAASGTAKLADCGLARPLDGGERPAYTHAVATRWYRAPELLYGARAYGPAVDVWALGLVFAELLGLSPLVPGDNDIDQLGRVIATFGSMEPVWLGVRALPDWGKIAFPHCEPLPLGDLLPGAPAAALEFLAAFLRYDPAKRITAACAVRSTYLTATQPL”, the protein production was “failed”. For “MPSTQSLTVAAKTLRNRIFSRSGSTSAGPSRWATPGHEERPKGYFMNRTPPAPGQSRKWEDWELPCYITSFLTIVILGVGLNAKPDLSIETWAHQKALERLEMEKLATAGDSSD”, the protein production was “failed”. For “MPTIFQIPTFIQILEFIGTFAFAISGIRLASAKQFDWFGAYVAGVAVAIGGGTIRDVLLDVTPFWMTNPIYLICSALALLWVIFFRKHLIHMHNTFFIFDSIGLALFTVVGISKTIDLGYAFWVAIIMGTMTGAAGGVIRDVFINEIPLIFRKEIYAMACVIGGVIYWGLDRFGVDAALTQVISGCCIFVVRALAVKYQICLPILKGE”, the protein production was “failed”. For “MPTINQLIRKERKKVVKKTKSPALVECPQRRGVCTRVYTTTPKKPNSALRKVAKVRLTSKFEVISYIPGEGHNLQEHSIVLVRGGRVKDLPGVKYHIVRGALDTAGVNKRTVSRSKYGTKKAKATDKKATDNKKK”, the protein production was “failed”. For “MPTKKMTRAQTCPHQTTVISNLKIIPLTLGWLLKSALLIIIIAVFIPLSPKMPAPGLDASWAVGLNQAVAQGLAFGKDIFFTLGPYSSIYTKFYHPATDFMMVGGSLYLALCYWIAIILLMQGIKWRWSIAFAILLFSMIYARDSLFFSYSLIIGLLIHKEISGKETSFKSNFCTLFALLFTPFGLFPLIKGSLLILSIITVLLCSLFLILYKQRNLAVLCLASPVVSILFFWIASGQSIFNLPAYVSNTILLASGFTEAMAIEGDNKELIFFGVTSSCILLSILLQKQLSPLSKAFLFCIYLVFLFLSYKTGFTRHFGHAFIAGTSVLLASFLLPYFNSNNKVIVPLLALSLYTASYINGHYTKISVRDNFISTYTAAYYGLKNRIQNKNWLKENFSLTMNYLKARDDFPRLPGTTDIYSYNQTSLIASGMTWSPRPIFQSYSVFTAKMAEINTNYLLSENKPDNILFKVEPIDNRIPSMEDGMSWPILINHYQPVRLENDFLFLRKKLVNKPVTSLVPLKTEIHTFGEQVKIPDTDKSLFVEIDIQPTLWGMLATTFFKPHQLEANLELKNGTQRQYRLISNMAKSGFLLSPFIENSAEFGLLFSQNNYLAGKKVISFSINSKQVPSSHWQTKYTIHYKTFASNN”, the protein production was “failed”. With “MPTTDLRKAQLQIHFCVLLWGITAILGKLITLQALPLVWWRMLIVVVALALWPRVWRGLRGLSGRVVLGYCGIGALVALHWLTFYGAIKLANASVAATCIALAPVFTAVIEPLVTHRPFRPRELLFGLAVLPGVALVVGGVPDGMRAGVVVGAISAVFVGLFGSLNKRMVAHADPLTVTALELGAGTLTLTLLAPAMPLLLPALHGDLLVVPSLHDGVLLLALSLACTLLPFALALVALRHLSAYSVQLVTNLEPVYAIVLAIALLGEQRELTLQFYLGVAIILGAVFLHPVLERRRTVAHPELLGTAEAKNIVD” the protein production was “failed”. In the case of “MPTTQLHHHYVLCGWHVRSALTLPELPPWSATATPVDADVVIEEGEVPDRLDLHDPVESWLSVGRDGSVLLQVPQVVRIHVHAGRAMRVQRLNRHDESWRLFLLGSALGYLCLQRSLFPLHAACLRIGTQTVAFAGHSGAGKSTLAAALLKRGHGLLSDDLTVIRLDSAGAIMVLPAFPRLKLWRDTLESLQLPVTDAPPVRPGMEKFDLRPSAGFDAAPVRLDAVVVLGDASEPHLQRLSPQHALPLLHGYLARPQAAVRMGLHAATFAHAAAIARQVPVWRLRRPRRFDALDITVDLIEAHVGALEHHHHHH”, the protein production is reported as “failed”. In the case of “MPTVKLTKNITIMTGSPNTLIYDNRVVIDLGGKNSSVDINAEVQLATHGHADHIAGLLKKDAKIRYLPKEDYWSLTLMGRRAMIYGCSSKDSDIFTFDYVKENIESIDIEVRTSEIEVIKLPGHTPGHSGYIVDNVLYAGDAFFGEKVLEGFSVPFYTDFWTALESLNKVKELAKSVNNIVISHGPVYTNKNKMVSILESNIIYAQNLIGKILDMLSNNELTVEEIVVKLKQDLTPSNVLLNSVVVRSILFGLENIEYNVSQKGLVFRRRVH”, the protein production is reported as “failed”. For “MPVAISLPTSSTSHFFPRRRGHANHRYQRFSGAQSSTEDPYIRKNQTGVIIIGAGLAGLAAANQLTSKRIPFLLLEASDGVGGRVRTDIVDGFFLDRGFQIFITAYPEAKKLLDYEALDLQRFYAGAKVFYGGKFHTVADPLRHFWDSVASLANPIGSVVDKGLIALTRARVLIKSDEEILTAADEVPTIDLLRKIGFSETILDRFFRPFFGGIFFDRDLETTSKLFDFVFRCLALGENTLPAMGIGEISNQLAAKLPAKSVLLNTRVASIEYPNGSGSDPPSVRLQDGSVMKAELGVIIAVEQPEVNKLLDGIRDPVITKPARSTICLYFTAEPNQIPVQDPVLFLNGSNSGIINNMFFATNVARTYAPPGKALVSVSLIGLFEDRTDDDLAAEVLRELSGWFGESPVMSWKHLKTYRIQFAQPNQCPPTDLVKSPRVGSGLYLSGDYMTSATFDGALVSGRRAVEVLLRETGLIK”, the protein production was “failed”. In the case of “MPVFRRHASQNCASIPPMMLFKRPDTETLYFALVNKDPAYEGVAYVCVTSTKIFCRFTCTARKPKIENCRFRETITECLEAGFRPCKRCKPMLSYGTPDGTVTALLTALENEPARRWREEDVVALGHDPSTVRRSFKRRFGMSFLEIARLRRVGDAAESLASGEAVIGAQIDAGYESGSGFRSAINQLFGTSPAAMKGRGFLKGDWIDTPIGPMLAVADDHALHLLEFADRPALPAELKRLKARTGADMVLGRTAVTGQIAAELAAYFAGRSGSFETRLAGHGTPFERDVWRNLREIPAGEIVSYSSLATAMERPTAVRAVARANGANQLAIVVPCHRVLGADGSLTGYGGGLWRKKWLIEHERRMARGQMLGMPLASLEHHHHHH”, the protein production is reported as “failed”. For “MPVKRIAVFSTTHIGFLDMLGRSDGIIGVSRPEFVNTPAVRSRIRSGAIKAIGMPFSPDVEALLNLEPDLVIAPALPAARKTDYQALVQAGIPVLVVAEWLEPSPLGRAEWIKLFGALVGKEKLARERFAAIESSYLKIAALSRNLPLEHHHHHH”, the protein production was “failed”. With “MPVRRPCPGRPYRDLSSAPGTAVRAEPTTPLPPFALRTCACQTPGRDMSVNALTAVPSARSIPATSAFRGRIGCDARSGHYPVPGRYRLHLSPSCPHCLKIAVAHSLLGLEDACPVTLLPAVPDGPGGEHSALRPLYEASAHRYAGAAVAPVLSDDWSGRIVSTHAPDIMRDLARRFGGERPPLYPKGMEAEIEAVGHLCEQGINATAQRAGRADADDAERDSALGSLLRTLRSLEGRLARQDYLLGDRLTAADIELWVSLVQLDTVHRWHLDASAVHRVADHPALWAYARRLAGDPAFGAHLDLDGIARRHHAHCRGLEAAGAAVQIVEWAAHAPDRTASRQG” the protein production was “failed”. With “MPVTETIPLHETARERYLNYALSVITSRALPDIRDGLKPVQRRILFAMFDSLNLYPSKRHRKSATVVGETMGKYHPHGDKAIYDAMVRMAQSFSLRAPLVDGHGNFGSLDGDSAAAMRYTEAKLQPLAMEMLEGLRDETVDYRDNFDGSLEEPVVLPARVPNLLVNGASGIAVGMATNIPPHNLGEVVDAALHMIEEPEVDTSTLVRDHIQGPDFPTGGRILNTQDELAEIYETGSGTIEMRGAYRTKGKTRAIIESVPYGVDKSKIVEEIADHIAEENVPQLSNVRDESTDDVRIVLELKRGSDTEAAMAYLFKHTKLQKRFHVNLTCLVPTESTDVKAPKQVDLRTILRYFLDFRLDVVTRRLQNELAELEARIHILEGFETIFDALDEAIEIIRASKNKADAAQRLMHRFQLDEEQTDAILETQLYKLSQMEIEAIRDELGEKRARAEGIRRLLDDEDARWGIVKDELQDIRDEYTDERRSTLVGPGADMEYTEEDYIVDEDVHVIVTRDGWVKRQGTYSDLDAIRTRDGDEVGWALAGSTRATVGFFTNYGTCYTTRITEIPSTTGYGDPVQKLFSFDDGEHVVGVVSFDDRALPDPVPAEPSEQGELFDPDDPDAPDQPYVVAISKGGQATRFTLDGYLEPSISTGRKYMRLEDGDEVARVHLARGDENICLASHDGRALVFPVHQVSVYKGPAKGVRAIRLEDNDRVLDFALSTRARDGLTVETNNGREEIVRTTKFDATNRGAKGTLVIKRGYFAEVFPEPVEVPLHEAA” the protein production was “failed”. With “MPVVECDIQTARAALADAGASFSDGNSEHELWHADLGDAHAVAYADKLVVQGGSPTDITAVVQPDRGGRVHAYFDGASRGNPGPAAVGWVLVSGDGGIVAEGGDTIGRATNNQAEYDALIAALEAAADFGFDDIELRGDSQLVEKQLTGAWDTNDPDLRRKRVRARELLTGFDDWSITHVPRATNERADALANEALDDA” the protein production was “failed”. With “MPYKTKSDLPESVKHVLPSHAQDIYKEAFNSAWDQYKDKEDRRDDASREETAHKVAWAAVKHEYAKGDDDKWHKKS” the protein production was “not failed”. In the case of “MPYLAGCGAVLYVDVMPEGTLLTRGVSASPTRCGRTPPGGRGVWLLCATIFYWAVARFGMALFSLAPENITPLWLASGVGLIMCLEAGLSAVPCIALASAVANFPGLSASGGESPLLYAVLTGTADGLSAGLLAALGSRVLQGGITSVLDLLRGVVLVCLPATLIGGVAITLCLFTGGYVPRDVLCQMSFSLMAGDTLGVLLVFPLWRAWHVLPLPSRTELCWMAGVLCLCLLSIWSAFFVEGAAIHMLMPLLVLLSCNVRINGVMVVLFLTVIAVFIATAHRVGPFHMPTQGEAVMLLVSFAASTTLTTLGLSLYRHLLAQAGARATMWEQRAGIDPLTGLCNRARFDEVLLAELQRLQRQDSPLSLMMFDADHFKPYNDMYGHVAGDACLKRVAGVLRAVAHRASDVVARYGGEEFVCILPGTDRDSAYALAEKVRQGVRALAIPHVGSPVAGVLTVSAGVVTVHGCDGLDPQEVVAQVDRALYQAKGAGRDRVMVAKGAAKEGMQYGECALSGVQRLVWSEDYACGEPRIDASHRALLAKADSIMSSLGGADGLNARRACILALVDAVRMHFREEERVLAAIGYPKAGEHAVIHEALLQRGASLVAAWERGGMSLDDVVITLVHGMVMRHMLDDDSAFFEHVQQWGAGGTQP”, the protein production is reported as “failed”. In the case of “MPYTVRFTTTARRDLHKLPPRILAAVVEFAFGDLSREPLRVGKPLRRELAGTFSARRGTYRLLYRIDDEHTTVVILRVDHRADIYRR”, the protein production is reported as “not failed”. With “MQAAAARIVTIAVCPGPAAAMQDAILQALRRDAADDAVALAREWVTNAPDHAAAHRWLALALQQQGQPALALDSIDTALTLTPEDADLHLLRAGALLATRDLSAADAALSRTTALDPNQFNAYVMQAHLAVARGDLDEAERLSRTAARLAPEHPQLLAVDGVVEMRRGQDDRALSLLTRAAEQLPDDARVLFSLGFAYLQKEHFAFAERAFERVIELNPPGTALRAFIAQLAQRQGRLDDALAAMQGVLDQPDGDLPAMRRLAGEMELQAGRPDQAAAHLRLALAHWPADRRTLHALLTAWERLGAVDDARDTLDAALATSATAHDLWLARLAVEPVGGPQAQAVIERWLLAMPEHLPALEALMRVHDMQGQADEAEMVARQIVAVEPGRISGEQRIVEALLQRDPPAAIACVESLIESLPAPQQTVLRPWLGNVQDRAGQPDAAVGTWMQFHREQAQHRLPLPPQAARQPTQWPALGSIPDTVTARPLFVWGTPGSHVERLVAVMGAATPLVRGDRYGITPPSDALQSYRTLEQLASGELAPTALVEGWKAQLPRRGIDDGNVIDWLLWWDNTLLTALRPHLPEGRLAIALRDPRDMLLDWLSAGASAPLALQSPQQATDWLLIALEQLATLHERDLYPHRIIRLDGIEDDPQGISTALEQAFGLSFPLVEPRGPARLASGRWRDYRGVLGAQFDLLTLIAVRFGYPQD” the protein production was “failed”.
